Assay results published in US20160137730A1 (Novartis, published 2016).

What was measured:
[1] = biological target: T1, recombinant human E-cadherin ECD (human, UniProt P12830 155-709); assay: ELISA, ECD coated on plate, Fab-containing E. coli lysate
T1 construct: extracellular domain; also called E-cadherin (CDH1)
T1 sequence (looked up): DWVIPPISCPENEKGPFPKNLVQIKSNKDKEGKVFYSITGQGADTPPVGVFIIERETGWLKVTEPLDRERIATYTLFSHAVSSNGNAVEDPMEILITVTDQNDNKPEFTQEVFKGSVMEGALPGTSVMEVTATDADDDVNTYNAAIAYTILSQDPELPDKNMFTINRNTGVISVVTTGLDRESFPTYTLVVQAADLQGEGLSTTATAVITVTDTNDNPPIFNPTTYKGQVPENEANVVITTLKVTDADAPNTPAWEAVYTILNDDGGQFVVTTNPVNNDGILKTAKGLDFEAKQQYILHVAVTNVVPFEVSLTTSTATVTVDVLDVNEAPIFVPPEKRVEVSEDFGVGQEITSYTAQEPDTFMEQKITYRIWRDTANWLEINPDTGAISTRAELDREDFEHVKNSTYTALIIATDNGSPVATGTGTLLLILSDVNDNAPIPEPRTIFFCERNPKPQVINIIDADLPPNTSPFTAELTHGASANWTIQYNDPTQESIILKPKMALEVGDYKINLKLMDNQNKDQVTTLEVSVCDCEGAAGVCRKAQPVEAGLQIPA
Procedure: (§1) To assess specificity of binding to P-cadherin vs E-cadherin and N-cadherin, Maxisorp 384-well plates were o/n at 4° C. with recombinant human E-cadherin or N-cadherin ECD and Fab fragments were assayed using an enzyme-linked immunosorbent assay (ELISA) format. After washing, plates were blocked for 2 h with 5% skim milk in 1×PBST. Fab-containing E. coli lysates were added and binding allowed for 1 h at room temperature (RT). To detect bound Fab fragments, plates were washed 5× with TBST and AP-anti human IgG F(ab′)₂ was added in a 1/2500 dilution. After 1 h at RT, plates were washed 5× with TBST and AttoPhos substrate was added according to the manufacturers specifications. Plates were read in an ELISA reader 5 minutes after adding the substrate.

[2] = biological target: T2, recombinant human N-cadherin ECD (human, UniProt P19022 160-724); assay: as above
T2 construct: extracellular domain; also called N-cadherin (CDH2)
T2 sequence (looked up): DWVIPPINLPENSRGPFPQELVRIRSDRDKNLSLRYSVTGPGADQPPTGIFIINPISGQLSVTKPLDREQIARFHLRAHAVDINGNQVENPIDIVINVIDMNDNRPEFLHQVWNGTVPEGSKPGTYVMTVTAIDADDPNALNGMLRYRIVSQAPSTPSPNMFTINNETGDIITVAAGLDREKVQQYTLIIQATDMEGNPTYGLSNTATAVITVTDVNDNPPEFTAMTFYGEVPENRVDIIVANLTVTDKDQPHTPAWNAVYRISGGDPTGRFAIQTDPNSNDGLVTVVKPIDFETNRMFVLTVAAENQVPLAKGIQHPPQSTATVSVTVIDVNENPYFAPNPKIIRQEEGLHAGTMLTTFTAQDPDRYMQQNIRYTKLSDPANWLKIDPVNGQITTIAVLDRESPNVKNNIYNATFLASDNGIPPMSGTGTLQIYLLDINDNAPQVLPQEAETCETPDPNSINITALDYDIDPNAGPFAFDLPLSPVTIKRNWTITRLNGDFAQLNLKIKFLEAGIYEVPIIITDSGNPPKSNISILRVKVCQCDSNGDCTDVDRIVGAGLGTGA
Procedure: as §1

B1: NOV169N31Q Fab (Fab, V domains shown)
VH: QVQLQQSGPGLVKPSQTLSLTCAISGDSVSSQSAAWNWIRQSPSRGLEWLGRIYYRSKWYNDYALSVKSRITINPDTSKNQFSLQLNSVTPEDTAVYYCARGEGYGREGFAIWGQGTLVTVSS
VL: DIQMTQSPSSLSASVGDRVTITCRASQTISNTLAWYQQKPGKAPKLLIYAASNLQSGVPSRFSGSGSGTDFTLTISSLQPEDFATYYCQQYLSWFTFGQGTKVEIKR
notes: Expressed in E. coli; also called Fab fragment of NOV169N31Q
binding result [1]: no binding
binding result [2]: no binding
